Where “and” joins values, the source holds several entries; their conditions need not be identical. Equal entries are not always repeated.
Tests used:
[1] = target: T1, African Green monkey MASP-2 (in African Green monkey serum) (African Green monkey); assay: cell-based or functional assay
human MASP-2 [2] = target: T2, human MASP-2 (human, UniProt O00187 16-686); assay: cell-based or functional assay
[3] = target: T3, rat MASP-2 (in rat serum) (rat, UniProt Q9JJS8 20-685); assay: cell-based or functional assay
human MASP-2 [4] = target: T2, human MASP-2; assay: cell-based or functional assay; remark: listed apart in the source
human MASP-2 [5] = target: T2, human MASP-2; assay: titration ELISA on MASP-2 (10 µg/ml)
[6] = target: T4, human MASP-2A (catalytically inactive human MASP-2, Ser618 to Ala618) (human, UniProt O00187 16-686); assay: ELISA, purified scFv titrated on physically adsorbed human MASP-2A
T4 construct: the ELISA and Biacore methods say only 'MASP-2A', so a tag may have been present; also called huMASP2A; huMASP-2A

human MASP-2 [7] = target: T2, human MASP-2; assay: cell-based or functional assay; remark: listed apart in the source
human MASP-2 [8] = target: T2, human MASP-2; assay: selectivity for human MASP-2 over C1s (method not detailed; see FIG. 16)
[9] = target: T1, African Green monkey MASP-2 (in African …); assay: cell-based or functional assay; remark: listed apart in the source
[10] = target: T3, rat MASP-2 (in rat serum); assay: cell-based or functional assay; remark: listed apart in the source
[11] = target: T4, human MASP-2A (catalytically inactive …); assay: titration ELISA on coated human MASP-2A ('Binding affinity'), IgG4 mutated format
Procedure: (§1) The clones were then purified and re-tested in an ELISA and activity assay as follows. Human MASP-2A was coated at 3 μg/ml in PBS on a maxisorp plate, IgG (45 μg/ml) and Fab′2 (30 μg/ml) were diluted in PBS-Tween to a starting concentration of 300 nM, and further with 3-fold dilutions. IgGs were detected with HRP conjugated Goat α-Human IgG (Southern Biotech) and the F(ab′)2 were detected with HRP-conjugated Goat α-Human IgG H+L (Pierce 31412). The reaction was developed with TMB substrate and stopped with 2M H₂SO₄.

[12] = target: T4, human MASP-2A (catalytically inactive …); assay: titration ELISA on coated human MASP-2A ('Binding affinity'), F(ab′)2
Procedure: as §1

human MASP-2 [13] = target: T2, human MASP-2; assay: cell-based or functional assay; remark: listed apart in the source
human MASP-2 [14] = target: T2, human MASP-2; assay: cell-based or functional assay; remark: listed apart in the source
[15] = target: T1, African Green monkey MASP-2 (in African …); assay: cell-based or functional assay; remark: listed apart in the source
human MASP-2 [16] = target: T2, human MASP-2; assay: cell-based or functional assay; remark: listed apart in the source
human MASP-2 [17] = target: T2, human MASP-2; assay: cell-based or functional assay; remark: listed apart in the source
[18] = target: T4, human MASP-2A (catalytically inactive …); assay: SPR (Biacore), MASP-2A amine coupled to CM5 chip, scFv monomer in solution
[19] = target: T4, human MASP-2A (catalytically inactive …); assay: SPR (Biacore), scFv captured by anti-cMyc antibody, MASP-2A in solution
human MASP-2 [20] = target: T2, human MASP-2; assay: cell-based or functional assay; remark: listed apart in the source

T4 sequence (O00187 16-686 S633A): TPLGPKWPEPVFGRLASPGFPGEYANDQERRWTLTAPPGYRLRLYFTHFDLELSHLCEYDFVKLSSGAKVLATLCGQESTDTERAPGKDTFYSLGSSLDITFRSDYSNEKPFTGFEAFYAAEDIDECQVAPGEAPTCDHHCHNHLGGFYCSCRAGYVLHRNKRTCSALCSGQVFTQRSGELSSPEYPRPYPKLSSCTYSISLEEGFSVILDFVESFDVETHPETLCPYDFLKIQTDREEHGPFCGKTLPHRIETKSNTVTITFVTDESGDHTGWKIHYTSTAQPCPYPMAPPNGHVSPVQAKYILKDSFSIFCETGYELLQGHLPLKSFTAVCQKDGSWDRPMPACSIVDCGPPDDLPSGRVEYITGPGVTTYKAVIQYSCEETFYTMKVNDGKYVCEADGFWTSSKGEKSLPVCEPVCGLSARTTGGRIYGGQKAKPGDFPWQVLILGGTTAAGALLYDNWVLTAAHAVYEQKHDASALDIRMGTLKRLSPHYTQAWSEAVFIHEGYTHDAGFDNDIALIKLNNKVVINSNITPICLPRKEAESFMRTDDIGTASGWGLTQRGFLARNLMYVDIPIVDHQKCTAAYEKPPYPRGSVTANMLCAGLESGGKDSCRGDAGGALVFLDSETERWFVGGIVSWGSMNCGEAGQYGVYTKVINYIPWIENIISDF
T3 sequence (Q9JJS8 other isoform, or with tags, fused parts or gaps limits assumed): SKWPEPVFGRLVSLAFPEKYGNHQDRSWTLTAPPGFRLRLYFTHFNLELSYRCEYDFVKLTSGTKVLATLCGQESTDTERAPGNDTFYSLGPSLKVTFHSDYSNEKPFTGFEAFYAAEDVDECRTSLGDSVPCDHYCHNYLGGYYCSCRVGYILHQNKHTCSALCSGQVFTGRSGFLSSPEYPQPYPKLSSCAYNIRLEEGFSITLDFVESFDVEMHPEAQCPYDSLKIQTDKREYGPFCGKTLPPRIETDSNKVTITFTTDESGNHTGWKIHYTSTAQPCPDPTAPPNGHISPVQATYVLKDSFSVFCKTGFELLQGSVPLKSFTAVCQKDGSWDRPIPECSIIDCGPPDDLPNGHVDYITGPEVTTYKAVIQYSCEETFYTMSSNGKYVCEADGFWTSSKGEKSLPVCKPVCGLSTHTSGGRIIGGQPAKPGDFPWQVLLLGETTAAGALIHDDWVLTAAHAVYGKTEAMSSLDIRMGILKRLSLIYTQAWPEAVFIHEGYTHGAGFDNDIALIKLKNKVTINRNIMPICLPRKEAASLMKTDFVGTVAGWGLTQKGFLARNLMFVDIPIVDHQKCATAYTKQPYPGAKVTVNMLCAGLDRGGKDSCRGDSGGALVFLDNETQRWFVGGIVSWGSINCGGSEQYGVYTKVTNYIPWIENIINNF
T2 sequence (O00187 16-686): as the sequence (O00187 16-686 S633A) above, with A618S counted along it

B1: scFv mother clone 17L20 (scFv)
scFv: EVQLQQSGPGLVKPSQTLSLTCAISGDSVSSKRAAWDWIRQSPSRGLEWLGRTYYRSKWFNDYAISVKSRITINADTSRNQFSLQLNSVTPEDTAVYYCVKSNSGTGAFDSWGQGTLVTVSSKLSGSASAPKLEEGEFSEARVQPGLTQPPSVSVSPGQTARITCSRDKLGDKYVSWYQQKPGQSPVVVMYKDNKRPSGIPERFSGSNSGNTATLTISGTQAMDEADYYCQAWDSSTAGVFGGGTKLTVLAAAGSEQKLISEEDLNSHHHHHH
- Functional IC50, C3b deposition, non-human primate serum Exp #2 [1]: 71.7 nM
- Functional IC50, C3b deposition, human serum Exp #2 (human MASP-2 [2]): 104 nM
- Functional IC50, C3b deposition, human serum Exp #3 (human MASP-2 [2]): 308 nM
- Functional IC50, C3b deposition, human serum Exp #4 (human MASP-2 [2]): 199 nM
- Functional IC50, C3b deposition, rat serum Exp #1 [3]: 41 nM

B2: scFv daughter clone 17D20m_d21N11 (scFv)
scFv: QVTLKESGPVLVKPTETLTLTCTVSGFSLSRGKMGVSWIRQPPGKALEWLAHIFSSDEKSYRTSLKSRLTISKDTSKNQVVLTMTNMDPVDTATYYCARIRAGGIDYWGQGTLVTVSSKLSGSASAPKLEEGEFSEARVQPVLTQPPSLSVSPGQTASITCSGEKLGDKYAYWYQQKPGQSPVLVMYQDKQRPSGIPERFSGSNSGNTATLTISGTQAMDEADYYCQAWDSSTAVFGGGTKLTVL
- 1% human serum C3 assay IC50 (human MASP-2 [4]): 360 nM
- 90% human serum C4 assay IC50 (human MASP-2 [4]): ~500 nM
- Kd (human MASP-2 [5]): 10 nM
- EC50 (read off the curve) [6]: ~3 nM

B3: MoAb #1 (OMS641), 17N16m_d17N9 IgG2 (antibody)
heavy: QVQLQQSGPGLVKPSQTLSLTCAISGDSVSSTSAAWNWIRQSPSRGLEWLGRTYYRSKWYNDYAVSVKSRITINPDTSKNQFSLQLNSVTPEDTAVYYCARDPFGVPFDIWGQGTMVTVSSASTKGPSVFPLAPCSRSTSESTAALGCLVKDYFPEPVTVSWNSGALTSGVHTFPAVLQSSGLYSLSSVVTVPSSNFGTQTYTCNVDHKPSNTKVDKTVERKCCVECPPCPAPPVAGPSVFLFPPKPKDTLMISRTPEVTCVVVDVSHEDPEVQFNWYVDGVEVHNAKTKPREEQFNSTFRVVSVLTVVHQDWLNGKEYKCKVSNKGLPAPIEKTISKTKGQPREPQVYTLPPSREEMTKNQVSLTCLVKGFYPSDIAVEWESNGQPENNYKTTPPMLDSDGSFFLYSKLTVDKSRWQQGNVFSCSVMHEALHNHYTQKSLSLSPGK
light: SYELIQPPSVSVAPGQTATITCAGDNLGKKRVHWYQQRPGQAPVLVIYDDSDRPSGIPDRFSASNSGNTATLTITRGEAGDEADYYCQVWDIATDHVVFGGGTKLTVLGQPKAAPSVTLFPPSSEELQANKATLVCLISDFYPGAVTVAWKADSSPVKAGVETTTPSKQSNNKYAASSYLSLTPEQWKSHRSYSCQVTHEGSTVEKTVAPTECS
notes: also called MoAb#1 (IgG2); 17N16_17N9
- Human C3 Assay IC50, 90% human serum (human MASP-2 [7]): 20 nM
- Human C4 assay IC50, 90% human serum (human MASP-2 [7]): 30 nM
- Selectivity over C1s (human MASP-2 [8]): > 5000 fold

B4: MoAb #2 (OMS642), 17N16m_d17N9 IgG4 (antibody)
heavy: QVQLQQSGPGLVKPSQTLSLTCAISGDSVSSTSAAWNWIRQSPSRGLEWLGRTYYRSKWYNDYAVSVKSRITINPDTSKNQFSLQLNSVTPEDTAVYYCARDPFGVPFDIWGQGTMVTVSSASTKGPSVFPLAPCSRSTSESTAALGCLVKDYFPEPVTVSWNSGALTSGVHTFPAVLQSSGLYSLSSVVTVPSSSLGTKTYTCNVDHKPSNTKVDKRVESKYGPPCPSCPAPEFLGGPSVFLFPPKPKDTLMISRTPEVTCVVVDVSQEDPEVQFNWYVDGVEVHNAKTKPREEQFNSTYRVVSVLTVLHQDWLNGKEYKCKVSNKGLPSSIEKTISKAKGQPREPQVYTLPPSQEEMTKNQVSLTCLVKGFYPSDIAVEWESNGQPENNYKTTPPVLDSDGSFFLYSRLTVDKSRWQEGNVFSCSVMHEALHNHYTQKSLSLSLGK
light: SYELIQPPSVSVAPGQTATITCAGDNLGKKRVHWYQQRPGQAPVLVIYDDSDRPSGIPDRFSASNSGNTATLTITRGEAGDEADYYCQVWDIATDHVVFGGGTKLTVLGQPKAAPSVTLFPPSSEELQANKATLVCLISDFYPGAVTVAWKADSSPVKAGVETTTPSKQSNNKYAASSYLSLTPEQWKSHRSYSCQVTHEGSTVEKTVAPTECS
notes: also called MoAb#2 (IgG4)
- African Green Monkey C3 assay IC50 [9]: 26 nM
- Human C3 Assay IC50, 90% human serum (human MASP-2 [7]): 3 nM
- Human C4 assay IC50, 90% human serum (human MASP-2 [7]): 30 nM
- Selectivity over C1s (human MASP-2 [8]): > 5000 fold
- Inhibition of Rat C3b IC50 [10]: 100 nM

B5: MoAb #3 (OMS643), 17N16m_d17N9 IgG4 (mutant, S228P) (antibody)
heavy: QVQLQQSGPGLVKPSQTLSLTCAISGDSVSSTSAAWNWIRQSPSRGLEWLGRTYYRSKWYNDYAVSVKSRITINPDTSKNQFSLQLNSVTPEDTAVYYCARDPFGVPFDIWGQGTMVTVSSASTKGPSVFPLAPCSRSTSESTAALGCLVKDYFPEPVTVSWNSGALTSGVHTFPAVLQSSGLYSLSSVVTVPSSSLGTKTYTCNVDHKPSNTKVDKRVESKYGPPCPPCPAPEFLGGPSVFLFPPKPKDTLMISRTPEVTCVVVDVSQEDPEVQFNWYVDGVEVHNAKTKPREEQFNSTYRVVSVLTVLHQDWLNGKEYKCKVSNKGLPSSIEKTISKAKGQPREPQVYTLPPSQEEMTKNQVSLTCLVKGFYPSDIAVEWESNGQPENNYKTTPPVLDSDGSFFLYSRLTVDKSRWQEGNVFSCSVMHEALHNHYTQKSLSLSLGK
light: SYELIQPPSVSVAPGQTATITCAGDNLGKKRVHWYQQRPGQAPVLVIYDDSDRPSGIPDRFSASNSGNTATLTITRGEAGDEADYYCQVWDIATDHVVFGGGTKLTVLGQPKAAPSVTLFPPSSEELQANKATLVCLISDFYPGAVTVAWKADSSPVKAGVETTTPSKQSNNKYAASSYLSLTPEQWKSHRSYSCQVTHEGSTVEKTVAPTECS
notes: also called MoAb#3 (IgG4 mutant)
- Human C3 Assay IC50, 90% human serum (human MASP-2 [7]): 12 nM
- Human C4 assay IC50, 90% human serum (human MASP-2 [7]): 30 nM
- Selectivity over C1s (human MASP-2 [8]): > 5000 fold
- Inhibition of Rat C3b IC50 [10]: 200 nM

B6: 17N16 mother clone, IgG4 hinge mutant (S228P) format (antibody, V domains shown)
VH: QVQLQQSGPGLVKPSQTLSLTCAISGDSVSSTSAAWNWIRQSPSRGLEWLGRTYYRSKWYNDYAVSVKSRITINPDTSKNQFSLQLNSVTPEDTAVYYCARDPFGVPFDIWGQGTMVTVSS
VL: SYVLTQPPSVSVAPGQTARITCGGNNIGSKNVHWYQQKPGQAPVLVVYDDSDRPSGIPERFSGSNSGNTATLTVSRVEAGDEADYYCQVWDTTTDHVVFGGGTKLTVL
notes: IgG4 S228P; also called 17N16 IgG4 mutated format
- Kd [11]: 0.0206 nM

B7: 17N16 mother clone, F(ab′)2 format (Fab, V domains shown)
VH: QVQLQQSGPGLVKPSQTLSLTCAISGDSVSSTSAAWNWIRQSPSRGLEWLGRTYYRSKWYNDYAVSVKSRITINPDTSKNQFSLQLNSVTPEDTAVYYCARDPFGVPFDIWGQGTMVTVSS
VL: SYVLTQPPSVSVAPGQTARITCGGNNIGSKNVHWYQQKPGQAPVLVVYDDSDRPSGIPERFSGSNSGNTATLTVSRVEAGDEADYYCQVWDTTTDHVVFGGGTKLTVL
notes: also called 17N16 F(ab′)2
- Kd [12]: 0.0959 nM

B8: 17D20 mother clone, IgG4 hinge mutant (S228P) format (antibody, V domains shown)
VH: QVTLKESGPVLVKPTETLTLTCTVSGFSLSRGKMGVSWIRQPPGKALEWLAHIFSSDEKSYRTSLKSRLTISKDTSKNQVVLTMTNMDPVDTATYYCARIRAGGIDYWGQGTLVTVSS
VL: QPVLTQPPSVSVSPGQTASITCSGDKLGDKFAYWYQQKPGHSPVLVIYQDNKRPSGIPGRFSGSNSGNTATLTISGTQAMDEADYYCQAWDSSTAVFGTGTKVTVLA
notes: IgG4 S228P; also called 17D20 IgG4 mutated format; 17D20 IgG4 S228P
- Kd [11]: 0.0284 nM
- C3b deposition assay in 1% human serum, IC50 (human MASP-2 [13]): 11 nM and 27 nM
- C4b deposition in 90% human serum, IC50 relative to the C3b deposition assay (human MASP-2 [14]): ~3 fold

B9: scFv mother clone 17D20 (scFv)
scFv: QVTLKESGPVLVKPTETLTLTCTVSGFSLSRGKMGVSWIRQPPGKALEWLAHIFSSDEKSYRTSLKSRLTISKDTSKNQVVLTMTNMDPVDTATYYCARIRAGGIDYWGQGTLVTVSSKLSGSASAPKLEEGEFSEARVQPVLTQPPSVSVSPGQTASITCSGDKLGDKFAYWYQQKPGHSPVLVIYQDNKRPSGIPGRFSGSNSGNTATLTISGTQAMDEADYYCQAWDSSTAVFGTGTKVTVLAAAGSEQKLISEEDLNSHHHHHH
notes: also called 17D20 (17P10); 17D20mc
- C3 Assay IC50, non-human primate serum Exp #1 [15]: 94 nM
- C3 Assay IC50, non-human primate serum Exp #2 [15]: 74 nM
- C3 Assay IC50, non-human primate serum mean [15]: 84 nM
- C3 Assay IC50 in dilute serum (1%), human serum Exp #1 (human MASP-2 [16]): 24 nM
- C3 Assay IC50 in dilute serum (1%), human serum Exp #2 (human MASP-2 [16]): 24 nM
- C3 Assay IC50 in dilute serum (1%), human serum Exp #3 (human MASP-2 [16]): 40 nM
- C3 Assay IC50 in dilute serum (1%), human serum mean (human MASP-2 [16]): 29 nM
- 1% human serum C3 assay IC50 (human MASP-2 [4]): 38 nM
- Kd (human MASP-2 [5]): 1.9 nM
- EC50 (read off the curve) [6]: ~2 nM
- C3 convertase assay using 1% human serum, IC50 (first experiment) (human MASP-2 [17]): 98.3 nM
- C3 convertase assay using 1% human serum, IC50 (second experiment) (human MASP-2 [17]): 151 nM
- Kd [18]: 11.3 nM
- Kd [19]: 0.76 nM
- Functional IC50, C3b deposition, non-human primate serum Exp #1 [1]: 94.8 nM
- Functional IC50, C3b deposition, non-human primate serum Exp #2 [1]: 71.8 nM
- Functional IC50, C3b deposition, human serum Exp #1 (human MASP-2 [2]): 157 nM
- Functional IC50, C3b deposition, human serum Exp #2 (human MASP-2 [2]): 39.9 nM
- Functional IC50, C3b deposition, human serum Exp #3 (human MASP-2 [2]): 24.1 nM
- Functional IC50, C3b deposition, human serum Exp #4 (human MASP-2 [2]): 23.7 nM
- Functional IC50, C3b deposition, rat serum Exp #1 [3]: 434 nM
- Inhibitory activity in Human Serum IC50 (C3b deposition, 0.5% human serum) (human MASP-2 [20]): 157 nM

From patent US20170088632A1 (OMEROS, published 2017)
